According to the supplement of paper PMC10567573:

B1: LCOR (parent)
chain: YKVKERLGTLKNPPKKKMKLMSG
B2: FAM46D (parent)
chain: FQEAMTHLQHKLICTRKPEEIRGG

Variants of: B1
Experiment: protein stability index of a GFP-peptide fusion (GPS, HEK-293T) (PSI 1-6); higher = more stable
Conditions: c terminus: native
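Further: lentivirally expressed fusions sorted by FACS into six bins by GFP to DsRed ratio, PSI derived from sequencing read proportions per bin multiplied by bin number.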

Protein stability index: each site, then its substitutions
L20: V 2.81 | Y 2.18 | P 3.94 | Q 3.83 | T 2.32 | S 3.02 | W 2.95
S22: C 2.14 | H 2.95 | N 2.11 | A 2.85 | Y 2.65 | D 3.1 | M 1.61 | K 3.02 | F 2.44 | E 2.58 | L 2.19 | T 2.42 | I 2.45 | P 2.45 | V 2.09
M21: Y 2.34 | H 3.33 | G 2.91 | S 1.45 | P 2.56 | L 3.01 | T 1.76 | I 1.92 | N 5.95 | W 2.82 | F 2.78 | C 4.02
G23: I 2.4 | R 2.88 | E 3.19 | W 2.19 | P 3.18 | L 2.75 | V 2.11 | F 2.15 | D 4.01 | K 3.41 | T 3 | C 2.57 | A 2.29 | S 3 | H 3.01 | Q 2.78 | N 2.43 | M 3.85 | Y 2.57

Variants of: B2
Experiment: as above
Conditions: c terminus: a fixed tail appended

Protein stability index, by site and new letter:
T6: V 2.86 | Y 1.54 | I 2.15 | S 3.2 | F 2.11 | N 2.11 | R 2.69 | E 3.38 | K 1.86 | P 3.04 | D 3.41 | A 2 | M 1.66 | W 1.49 | Q 2.13 | H 2.22 | L 2.04
A4: F 1.82 | D 2.8 | C 2.61 | G 2.74 | W 1.58 | M 3.38 | R 2.75 | V 2.63 | N 3.36 | K 3.51 | S 2.99 | T 3.29 | Y 2 | Q 2.98 | I 2.42 | H 2.95 | E 3.28 | P 2.62
I13: M 2.61 | E 3.67 | P 2.95 | L 2.13 | A 2.76 | V 2.76 | N 3.33 | Q 3.58 | R 2.72 | H 2.54 | K 3.67 | T 2.52 | C 3.07 | S 2.94 | D 2.57 | G 2.67 | F 1.73 | Y 3.58
L8: I 2.88 | P 2.99 | F 2.42 | D 4.31 | A 3.91 | E 3.69 | W 1.89 | G 3.09 | Q 3.68 | H 3.57 | R 3.31 | Y 2.34 | C 3.23 | N 3.76 | S 3.62 | K 2.29 | T 3.35 | M 3.24 | V 2.07
Q9: E 3.36 | K 2.38 | W 1.16 | N 1.79 | T 2.6 | Y 2.3 | C 1.89 | R 2.7 | H 2.67 | D 2.89 | M 2.21 | A 2.25 | G 2.09 | F 2.61
C14: W 1.68 | Q 2.51 | G 2.63 | D 3.17 | I 2.21 | N 2.71 | T 2.7 | R 3.28 | K 2.6 | P 2.33 | M 2.38 | S 2.87 | H 2.82 | V 2.96 | Y 2.45 | E 3.36 | L 2.55 | F 2.58
F1: Q 3.85 | Y 3.2 | N 4.29 | A 4.16 | E 5.26 | V 4.64 | G 4.4 | S 3.49 | M 3.67 | R 3.82 | K 3.61 | W 3.28 | T 3.96 | L 2.93 | C 3.98 | P 4.01 | H 4.3 | D 4.81 | I 3.29
M5: S 3.67 | R 3.13 | L 1.64 | P 3.37 | T 3.12 | H 3.79 | A 3.21 | Y 2.16 | E 4.43 | G 3.54 | C 3.35 | W 2.1 | D 3.44 | V 2.97 | K 2.94 | N 3.53 | F 1.93 | I 2.22
H7: I 1.59 | G 2.71 | W 1.95 | N 3.19 | Q 2.93 | M 1.11 | K 2.61 | R 2.66 | A 2.44 | Y 3.71 | L 1.67 | S 3.3 | D 3.54 | V 2.48 | C 2.85 | P 3.4 | T 2.77 | E 3.86
E3: L 1.9 | A 1.82 | Y 2.3 | K 2.17 | N 2.55 | D 2.17 | C 1.64 | V 2.08 | R 1.82 | M 1.62 | T 2.54 | S 1.91 | P 2.8 | H 2.21 | F 1.48 | I 2.22 | Q 2.52 | G 2.98
K11: D 2.88 | R 2.83 | Y 1.66 | Q 2.41 | M 1.57 | W 1.58 | I 2.03 | V 1.86 | C 2.89 | A 2.54 | E 3.88 | G 2.38 | T 2.72 | L 2.79 | S 3.15 | F 2.16 | H 2.44 | N 2.17 | P 2.44
R16: G 2.6 | F 2.62 | M 2.21 | C 1.84 | E 2.57 | Q 3.16 | N 3.02 | D 2.68 | A 3.35 | H 2.6 | L 2.55 | K 2.09 | P 2.87 | I 2.08
T15: S 2.92 | L 1.77 | V 2.94 | M 3.17 | W 2.31 | D 3.01 | A 3.06 | C 2.42 | K 3.42 | P 3.04 | Q 3.31 | I 2.21 | H 2.22 | N 2.79 | Y 2.17 | E 3.06 | G 3.56
L12: W 1.27 | A 3.49 | G 2.72 | T 3.99 | D 2.98 | S 3.4 | R 2.71 | Y 2.31 | K 2.9 | Q 3.87 | N 4.18 | F 2.38 | P 2.8 | H 3.44 | I 2.78 | V 3.06 | E 3.27 | C 2.84 | M 3.84
Q2: P 2.53 | S 2.74 | R 4.08 | L 2.32 | M 2.28 | E 4.25 | C 1.76 | W 1.67 | G 3.01 | N 3.38 | T 2.1 | Y 2.19 | D 4.05 | I 2.01 | V 1.56 | K 3.46 | A 2.91 | F 1.6 | H 2.02
H10: S 2.5 | C 2.72 | N 2.93 | K 2.94 | T 3.52 | D 3.14 | R 2.71 | Q 3.05 | P 3.16 | V 1.92 | L 2.24 | M 1.44 | Y 2.11 | F 1.73 | E 3.79 | G 2.67
